The values below come from PMC7145618.

Data set [1] has as its target Drc (ssDNA-binding RNA Polymerase Cofactor), Pseudomonas virus LUZ7 gp14 (Pseudomonas virus LUZ7). In words: crystal structure.
The target in data set [2] is Drc(Δ67–99) (Pseudomonas virus LUZ7). In words: SEC. (In gel filtration, larger molecules generally elute earlier.)
Data set [3] has as its target T1, Drc (gp14) (Pseudomonas phage LUZ7, UniProt C8ZKB3).
T1 sequence: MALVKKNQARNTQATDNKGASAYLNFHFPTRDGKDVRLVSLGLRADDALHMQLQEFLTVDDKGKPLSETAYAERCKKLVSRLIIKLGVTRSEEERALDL
Nature of the data set: EMSA. On the technique in general: In EMSA bound probe runs differently from free probe, usually more slowly.

Data set [4] has as its target T1, Drc (gp14). In words: EMSA. This is another data set of the same source.

Like-named read-outs stand apart in the source and are kept apart here.

As to “Drc (ssDNA-binding RNA Polymerase Cofactor), Pseudomonas virus LUZ7 gp14 (natural protein)”, the stoichiometry N (as a rule, the number of molecules, sites or subunits per partner or assembly) in data set [1] was 2. Drc(Δ67–99) (domain or fragment) came in with a stoichiometry N in data set [2] of 2.

With TGAGTTTTTTTCATTTTTTGCGTAAATTTC (ssDNA) [30-nt ssDNA], the binding result with Drc (gp14) [3] is “binds”.

B1: internally melted duplex (dsDNA)
DNA 1: GGGCGGCGGTTTTTTTTTTGCGGGGCGG
DNA 2: CCGCCCCGCTTTTTTTTTTCCGCCGCCC
As for B1, the binding result in the data set with Drc (gp14) [4] was “binds”.
